Protein stability index data for 37 sequences are collected here from the supplement of paper PMC10567573.

± gives the standard deviation.

This data set in a line: protein stability index of a GFP-peptide fusion (GPS, HEK-293T) (PSI 1-6); higher = more stable. The note with it: c terminus: a fixed tail appended.
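Also: 24-mer peptide tiles fused after GFP, lentivirally expressed, FACS-sorted into six equal bins by GFP/DsRed ratio, decoded by Illumina sequencing, PSI is the read-weighted mean bin number.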

In the case of SFGPQPISRLEQCGINANDVKKLE [RAD51], the protein stability index was found to be 4.27 ± 0.18 (treatment: DMSO) and 4.37 ± 0.14 (treatment: MLN4924 1 uM, 8 h).

For EPEPAEVTSTSQSPHSPDSSQSSL [DDIT3], the protein stability index (treatment: DMSO) was 5.48 ± 0.15 and the protein stability index (treatment: MLN4924 1 uM, 8 h) is 5.58 ± 0.13.

For the sequence DDVRLLCHLTPSIYTEFPDETLRS [INTS3], the protein stability index worked out at 3.41 ± 0.2 (treatment: DMSO) and 3.49 ± 0.54 (treatment: MLN4924 1 uM, 8 h).

Consider GHVEMVNLLLAKGANINAFDKKDR [ANKRD44], for which the protein stability index reads like this: (treatment: DMSO) 3.41 ± 0.19; (treatment: MLN4924 1 uM, 8 h) 3.38 ± 0.3.

For the sequence KREREVDEDSEPEREVRAKNGRVD [USP39], the protein stability index is 5.46 ± 0.081 (treatment: DMSO) and 5.69 ± 0.12 (treatment: MLN4924 1 uM, 8 h).

As for LQKVLLMLVDGIDPNFKMEHQNKR [EHMT1], the protein stability index came to 2.62 ± 0.73 (treatment: DMSO) and 2.38 ± 0.33 (treatment: MLN4924 1 uM, 8 h).

Regarding QSSFNSLQRVPSYDSFDSEDYPAA [ETS1], the protein stability index is 4.92 ± 0.28 (treatment: DMSO) and 4.93 ± 0.21 (treatment: MLN4924 1 uM, 8 h).

AVLGFPGFSSGRHRWQVDLQLGDG [TRIM15] registered a protein stability index (treatment: DMSO) of 2.18 ± 0.069 and a protein stability index (treatment: MLN4924 1 uM, 8 h) of 2.22 ± 0.17.

With GYLLSFHTPGGQNQEILLPGGITS [TNXB], the protein stability index is, setting by setting: (treatment: DMSO) 2 ± 0.36; (treatment: MLN4924 1 uM, 8 h) 2 ± 0.41.

Take TVFRAILDYYKTGIIRCPDGISIP [BTBD10]: the protein stability index by setting is: (treatment: DMSO) 3.01 ± 0.24; (treatment: MLN4924 1 uM, 8 h) 2.56 ± 0.43.

On to DRKVLLKSDSPTGDVLLDETLKHI [GOLPH3L], for which the protein stability index reads like this: (treatment: DMSO) 4.17 ± 0.16; (treatment: MLN4924 1 uM, 8 h) 4.54 ± 0.3.

Take DVNKTDHSQRTALHLAAQKALRTI [INVS]: the protein stability index amounted to 3.06 ± 0.42 (treatment: DMSO) and 3.44 ± 0.43 (treatment: MLN4924 1 uM, 8 h).

Turning to YGGSGDGLIPTGSGRHPSHSTTPS [ARFIP2], the protein stability index runs as follows: (treatment: DMSO) 4.26 ± 0.069; (treatment: MLN4924 1 uM, 8 h) 4.51 ± 0.29.

In turn, MGEDEDGLSEKNCQNKCRIALVEN [PLD5] displayed a protein stability index (treatment: DMSO) of 5.14 ± 0.51 and a protein stability index (treatment: MLN4924 1 uM, 8 h) of 4.82 ± 0.11.

Consider SEEEKELYLNLALHLASDFFLKHP [PDS5B], for which the protein stability index is 2.19 ± 0.36 (treatment: DMSO) and 2.18 ± 0.36 (treatment: MLN4924 1 uM, 8 h).

Take QAGAARLEEELRQLKEEMARHLRE [PRPH]: the protein stability index was determined as 4.15 ± 0.37 (treatment: DMSO) and 4.63 ± 0.3 (treatment: MLN4924 1 uM, 8 h).

On to ELTLSKTDLEMQIESLNEELAYMK [KRT13], for which the protein stability index reads like this: (treatment: DMSO) 3.66 ± 0.15; (treatment: MLN4924 1 uM, 8 h) 3.66 ± 0.35.

In the case of HGPISEVLLIKDRTSKSRGFAFIT [RBMY1A1], the protein stability index is, setting by setting: (treatment: DMSO) 2.83 ± 0.36; (treatment: MLN4924 1 uM, 8 h) 2.66 ± 0.91.

On to PEARYLFLLDVIPVDGARYRWQGR [TBX6], for which the protein stability index (treatment: DMSO) stood at 2.08 ± 0.27 and the protein stability index (treatment: MLN4924 1 uM, 8 h) amounted to 2.09 ± 0.31.

On to LQNMGLLLDKLAKENQDIRLLQAQ [PBXIP1], for which the protein stability index was 2.82 ± 0.2 (treatment: DMSO) and 2.93 ± 0.35 (treatment: MLN4924 1 uM, 8 h).

Turning to KKLHEEELRDLQVSVESQQVQQVE [PRPH], the protein stability index is 4.13 ± 0.62 (treatment: DMSO) and 4.2 ± 0.13 (treatment: MLN4924 1 uM, 8 h).

In the case of KVFLHERELWLKFHEVGTEMIITK [TBX5], the protein stability index runs as follows: (treatment: DMSO) 2.12 ± 0.19; (treatment: MLN4924 1 uM, 8 h) 2.33 ± 0.44.

In the case of LHQETQLIHVYLPLTSHILRAFVN [SNX8], the protein stability index reads like this: (treatment: DMSO) 3.06 ± 0.67; (treatment: MLN4924 1 uM, 8 h) 2.86 ± 0.48.

ARELQEALPEAPAPLLPHITATSL [BCL2L13]: the protein stability index by setting is: (treatment: DMSO) 4.32 ± 0.4; (treatment: MLN4924 1 uM, 8 h) 4.32 ± 0.22.

GYPVSSAFAFQNTFPHSISAKNTS [SASS6]: the protein stability index reads like this: (treatment: DMSO) 3.19 ± 0.43; (treatment: MLN4924 1 uM, 8 h) 3.37 ± 0.21.

Turning to RLALEKVPKVGQRFNRIGLPPKVG [PI4K2A], the protein stability index (treatment: DMSO) stood at 3.23 ± 0.3 and the protein stability index (treatment: MLN4924 1 uM, 8 h) amounted to 3.21 ± 0.097.

As to MVGEEKMSLRNRLSKSRENPEEDE [SOAT1], the protein stability index is, setting by setting: (treatment: DMSO) 5.52 ± 0.16; (treatment: MLN4924 1 uM, 8 h) 5.44 ± 0.21.

For IGLTKAGMEGDWSWVDDTPFNKVQ [CD207], the protein stability index turned out to be 2.97 ± 0.37 (treatment: DMSO) and 3.04 ± 0.46 (treatment: MLN4924 1 uM, 8 h).

Consider PKEEQQQALEQFAAAAAHSTPVRR [EPB41L3], for which the protein stability index is, setting by setting: (treatment: DMSO) 5.37 ± 0.087; (treatment: MLN4924 1 uM, 8 h) 5.22 ± 0.33.

As to PGAFGTILTFLRAGKLRLLREMCA [KCNG1], the protein stability index is, setting by setting: (treatment: DMSO) 2.84 ± 0.33; (treatment: MLN4924 1 uM, 8 h) 2.8 ± 0.062.

As for KKAPQPAKPRLAERMTTREKKVLE [HDAC6], the protein stability index is, setting by setting: (treatment: DMSO) 4.58 ± 0.18; (treatment: MLN4924 1 uM, 8 h) 4.81 ± 0.39.

As to YDVEMTDELVGLPFSSHTYSQASE [FBXO34], the protein stability index is, setting by setting: (treatment: DMSO) 4.52 ± 0.32; (treatment: MLN4924 1 uM, 8 h) 4.52 ± 0.23.

As to YAVGGSDGTSPLNTVERYNPQENR [KLHL20], the protein stability index by setting is: (treatment: DMSO) 4.53 ± 0.33; (treatment: MLN4924 1 uM, 8 h) 4.79 ± 0.28.

Consider IVSILPYFITLGTDLAQQQGGGNG [KCNA4], for which the protein stability index amounted to 2.92 ± 0.36 (treatment: DMSO) and 2.54 ± 0.23 (treatment: MLN4924 1 uM, 8 h).

On to QKKIESYLHNHFIGEGMTKYDYLM [TENT5D], for which the protein stability index runs as follows: (treatment: DMSO) 2.13 ± 0.45; (treatment: MLN4924 1 uM, 8 h) 2.18 ± 0.27.

For the sequence SSTSYRRTFGPPPSLSPGAFSYSS [PRPH], the protein stability index by setting is: (treatment: DMSO) 3 ± 0.28; (treatment: MLN4924 1 uM, 8 h) 3.21 ± 0.3.

Sequence LVEDMQRELGRLRQQVTNHGRGTE [ZNF263] came in with a protein stability index (treatment: DMSO) of 3.35 ± 0.33 and a protein stability index (treatment: MLN4924 1 uM, 8 h) of 3.55 ± 0.22.
